Numbering of substitutions follows the chain as printed.
T1: mouse PTPRG ECD (amino acid residues 20-733 of mouse PTPRG) fused to hFc (mouse, UniProt Q05909 20-733)
T1 construct: Produced in-house; also called mPTPRG-ECD; Mouse PTPRG-ECD-hFc; not shown: human Fc (hFc)
T1 sequence: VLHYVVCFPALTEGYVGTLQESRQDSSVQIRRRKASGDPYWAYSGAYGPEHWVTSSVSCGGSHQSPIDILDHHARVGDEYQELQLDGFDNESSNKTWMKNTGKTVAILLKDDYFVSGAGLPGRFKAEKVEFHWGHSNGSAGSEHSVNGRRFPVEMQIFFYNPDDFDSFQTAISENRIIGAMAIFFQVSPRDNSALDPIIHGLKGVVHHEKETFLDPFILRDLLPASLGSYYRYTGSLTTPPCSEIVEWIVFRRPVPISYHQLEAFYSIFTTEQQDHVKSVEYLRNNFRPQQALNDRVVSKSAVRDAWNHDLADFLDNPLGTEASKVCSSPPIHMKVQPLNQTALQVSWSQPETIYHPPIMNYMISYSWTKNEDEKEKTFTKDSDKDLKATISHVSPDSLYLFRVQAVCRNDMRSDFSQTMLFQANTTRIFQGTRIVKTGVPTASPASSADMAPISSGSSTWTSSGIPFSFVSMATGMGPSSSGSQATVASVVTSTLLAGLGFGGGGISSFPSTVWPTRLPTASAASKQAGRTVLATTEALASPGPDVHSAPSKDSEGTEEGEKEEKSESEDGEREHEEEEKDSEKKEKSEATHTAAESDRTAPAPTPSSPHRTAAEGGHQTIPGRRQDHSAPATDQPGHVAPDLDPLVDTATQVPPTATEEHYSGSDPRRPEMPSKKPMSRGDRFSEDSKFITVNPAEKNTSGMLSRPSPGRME

T2: C-terminal domain (CTD) of human PTPRG (amino acid residues 349~736 of human PTPRG) (human, UniProt P23470 349-736)
T2 construct: also called hPTPRG-CTD; human PTPRG carboxyl domain
T2 sequence: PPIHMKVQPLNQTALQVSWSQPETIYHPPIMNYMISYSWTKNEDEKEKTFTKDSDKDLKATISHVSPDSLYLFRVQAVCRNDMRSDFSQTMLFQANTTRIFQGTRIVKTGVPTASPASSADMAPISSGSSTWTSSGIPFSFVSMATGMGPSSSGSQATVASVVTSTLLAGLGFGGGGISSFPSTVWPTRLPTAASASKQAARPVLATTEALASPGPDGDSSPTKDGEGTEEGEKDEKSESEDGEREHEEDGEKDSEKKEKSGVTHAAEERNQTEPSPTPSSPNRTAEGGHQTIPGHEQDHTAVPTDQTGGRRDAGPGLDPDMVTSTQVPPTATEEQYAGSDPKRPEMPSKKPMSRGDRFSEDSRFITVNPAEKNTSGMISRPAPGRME

T3: human CD105-ECD: amino acid residues Met 1-Gly 586 of human CD105 (Sino bio: Cat: 10149-H02H) (human, UniProt P17813 26-586)
T3 construct: Bought; also called hCD105-ECD-hFc; hCD105-hFc
T3 sequence: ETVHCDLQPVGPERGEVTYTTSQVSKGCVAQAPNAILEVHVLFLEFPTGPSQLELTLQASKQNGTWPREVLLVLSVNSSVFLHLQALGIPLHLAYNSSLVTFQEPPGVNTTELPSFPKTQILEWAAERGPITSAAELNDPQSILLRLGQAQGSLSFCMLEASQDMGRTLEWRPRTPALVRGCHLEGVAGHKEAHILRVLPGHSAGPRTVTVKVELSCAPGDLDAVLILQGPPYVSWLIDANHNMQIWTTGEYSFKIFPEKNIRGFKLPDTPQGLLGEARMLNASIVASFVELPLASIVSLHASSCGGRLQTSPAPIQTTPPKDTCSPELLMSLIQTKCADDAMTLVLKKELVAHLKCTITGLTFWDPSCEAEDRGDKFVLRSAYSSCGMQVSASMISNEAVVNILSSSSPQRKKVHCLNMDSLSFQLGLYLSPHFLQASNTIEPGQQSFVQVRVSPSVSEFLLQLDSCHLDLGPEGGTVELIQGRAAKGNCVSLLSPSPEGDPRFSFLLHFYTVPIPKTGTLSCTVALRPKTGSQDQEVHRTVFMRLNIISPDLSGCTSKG

T4: human Nectin-2 extracellular domain (amino acid residues 1-360 of human Nectin-2) fused to hFc (human, UniProt Q92692 32-360)
T4 construct: Bought; also called hNectin-2-ECD-hFc; NECTIN2-ECD-hFc; not shown: human Fc (hFc)
T4 sequence: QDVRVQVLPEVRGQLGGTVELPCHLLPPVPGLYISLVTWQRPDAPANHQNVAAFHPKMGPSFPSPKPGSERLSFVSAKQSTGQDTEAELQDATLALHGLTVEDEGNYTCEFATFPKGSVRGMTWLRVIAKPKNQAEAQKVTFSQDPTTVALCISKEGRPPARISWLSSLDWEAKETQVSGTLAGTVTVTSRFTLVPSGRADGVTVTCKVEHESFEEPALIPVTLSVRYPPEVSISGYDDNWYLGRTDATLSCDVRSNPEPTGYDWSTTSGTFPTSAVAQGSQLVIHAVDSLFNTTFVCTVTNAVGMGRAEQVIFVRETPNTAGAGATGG

B1: Fab_130 (Fab, V domains shown)
VH: QEQQKESGGGLFKPTDTLTLTCTVSGFSLSSNAISWVRQAPGNGLEWIGAIDNSGSAYYATWAKGRSTITRATNLNTVTLKMTSVTAADTATYFCAREDVRADSIDLNMWGPGTLVTISS
VL: SFVLTQPASVQVNLGQTVSLTCTADTLSRSYASWYQQKPGQAPVLLIYRDTSRPSGVPDRFSGSSSGNTATLTISGAQAGDEADYYCATSDGSGSSYQFVFGGGTQLTVTG
notes: Chimeric rabbit/human Fab; also called P130; clone 130
B2: Fab_17 (Fab, V domains shown)
VH: AQSLEEFGGRLATPGTPLTLTCTASGFSLGTYSMSWVRQAPGKGLEWIGTIGGRGDAYYASWAKGRFTISRTSTTVDLKMTSLATEDTATYFCVRENYGYAFDIWGPGTLVTISS
VL: B1 VL with S30R, F99C
notes: Chimeric rabbit/human Fab; also called P17; clone 17
B3: Fab_1707 (Fab, V domains shown)
VH: AQSLEEFGGGLIKPGGTLTLTCTASGFTISSYDMSWVRQAPGSGLEWIGTMAYGGDTYHASWAKSRSTITRDTNLNTVTLKMTSLTVADTATYFCARDVGSGHYYDDMYLWGPGTLVTVSS
VL: B1 VL with L14F, S30R, S90G, Q98N, F99Y
notes: Chimeric rabbit/human Fab; also called P1707
B4: Fab_28 (Fab, V domains shown)
VH: AQSVEESGGRLVTPGIPLTLTCTVSGFSLNNYAMSWVRQAPGKGLEWIGMIDSGGAAYYATWARGRFTISRTSTTVDLKITSPTTEDTATYFCARELSSLYGAFDPWGPGTLVTVSS
VL: B1 VL with S30R, F99C
notes: Chimeric rabbit/human Fab; also called P28; clone 28
B5: Fab_2861 (Fab, V domains shown)
VH: AQSVEESGGRLVTPGTPLTLTCTVSGIDLSSYAMGWVRQAPGKGLEYIGIIVSDGRTYYTSWAKGRFTISKTSTTVDLKMTSPTTEDTATYFCAREGYGYYFDIWGPGTLVTISS
VL: B1 VL with S30R, S90A
notes: Chimeric rabbit/human Fab; also called P2861; clone 2861
B6: Fab_3208 (Fab, V domains shown)
VH: AQSVKESEGGLFKPTDTLTLTCTVSGFSLSSYAISWVRRAPGNGLEWIGAIAGYGDAYYASWAKSRSTITRNTNENTVTLKMTSLTAADTATYFCARDDYNVDTGIWGPGTLVTISS
VL: B1 VL with S30R, S90G, F99Y
notes: Chimeric rabbit/human Fab; also called P3208; clone 3208
B7: Fab_2653 (Fab, V domains shown)
VH: QEQLEESGGRLVTPGTPLTLTCTASGFSLSTYAMTWVRQAPGKGLEWIGIIDRYGYTYYANWARGRFTISKTSTTVDLKITSPTTEDTATYFCARDLPGYNVGTYFNMWGPGTLVTISS
VL: B1 VL with S30R, L46F, N68S
notes: Chimeric rabbit/human Fab; also called P2653; clone 2653
B8: Fab_240 (Fab, V domains shown)
VH: AQSLEESGGRLVTPGTPLTLTCTVSGFSLSAYAMSWVRQAPGKGLEWIGIISSYGNTYYATWAKGRFTISKTSTTVDLKITSPTTEDTATYFCARGDYGNGMSIWGPGTLVTVSS
VL: B1 VL with S30R, S52R, F99C
notes: Chimeric rabbit/human Fab; also called P240; clone 240
B9: Fab_11 (Fab, V domains shown)
VH: AQSLEESGGRLVTPGTPLTLTCTVSGFSLSSYAMTWVRQAPGEGLEWIGTIGAGGSPYYASWAKGRFTISKTATTVNLKIISPTTEDTATYFCAREGGGSYYFDLWGPGTLVTVSS
VL: B1 VL with S96T, Y97F, Q98H
notes: Chimeric rabbit/human Fab; also called P11; mAb_11
B10: Fab_1187 (Fab, V domains shown)
VH: AQSVEESGGRLVTPGTPLTLTCTVSGIDLSSYAMSWVRQAPGKGLEWIGVIDGSGSTWYANWVKGRFTISKTTTVDLKITSPTTEDTATYFCAREDYGSETIDFNIWGPGTLVTVSS
VL: B1 VL with S30R, S52R, F99Y
notes: Chimeric rabbit/human Fab; also called P1187; mAb_1187
B11: Fab_2388 (Fab, V domains shown)
VH: QEQLKESGGGLFKPTDTLTLTCTVSGFSLSNYAISLVRQPPGNGLEWIGAIDAGGVTYYASWAKSRSTITRNTNLNTVTLKMTSLTAADTATYFCAREEWSSSSGLYFSIWGPGTLVTISS
VL: B1 VL with S30R, Q98L, F99Y
notes: Chimeric rabbit/human Fab; also called P2388; clone 2388

target: T1, mouse PTPRG ECD (amino acid residues …); assay: ELISA, one condition per Fab and antigen; y axis 0 to 1.8 without name or unit

Row | Binder | binding result
1 | B1 | binds
2 | B2 | binds
3 | B3 | binds
4 | B4 | binds
5 | B5 | binds
6 | B6 | binds
7 | B7 | binds
8 | B8 | binds

target: T2, C-terminal domain (CTD) of human PTPRG …; assay: as above

Row | Binder | binding result
9 | B1 | no binding
10 | B2 | no binding
11 | B3 | no binding
12 | B4 | no binding
13 | B5 | no binding
14 | B6 | no binding
15 | B7 | no binding
16 | B9 | no binding
17 | B8 | no binding

target: T5, human PTPRG on the cell surface (U937 cells, HEL cells) (human, UniProt P23470 20-1445); assay: flow cytometry on whole U937 cells, screen of the 28 clones (Ctrl row = 0); PTPRG is named as the antigen on U937 cells only in the later examples
T5 construct: Endogenous PTPRG of human AML cell lines
T5 sequence (P23470 20-1445): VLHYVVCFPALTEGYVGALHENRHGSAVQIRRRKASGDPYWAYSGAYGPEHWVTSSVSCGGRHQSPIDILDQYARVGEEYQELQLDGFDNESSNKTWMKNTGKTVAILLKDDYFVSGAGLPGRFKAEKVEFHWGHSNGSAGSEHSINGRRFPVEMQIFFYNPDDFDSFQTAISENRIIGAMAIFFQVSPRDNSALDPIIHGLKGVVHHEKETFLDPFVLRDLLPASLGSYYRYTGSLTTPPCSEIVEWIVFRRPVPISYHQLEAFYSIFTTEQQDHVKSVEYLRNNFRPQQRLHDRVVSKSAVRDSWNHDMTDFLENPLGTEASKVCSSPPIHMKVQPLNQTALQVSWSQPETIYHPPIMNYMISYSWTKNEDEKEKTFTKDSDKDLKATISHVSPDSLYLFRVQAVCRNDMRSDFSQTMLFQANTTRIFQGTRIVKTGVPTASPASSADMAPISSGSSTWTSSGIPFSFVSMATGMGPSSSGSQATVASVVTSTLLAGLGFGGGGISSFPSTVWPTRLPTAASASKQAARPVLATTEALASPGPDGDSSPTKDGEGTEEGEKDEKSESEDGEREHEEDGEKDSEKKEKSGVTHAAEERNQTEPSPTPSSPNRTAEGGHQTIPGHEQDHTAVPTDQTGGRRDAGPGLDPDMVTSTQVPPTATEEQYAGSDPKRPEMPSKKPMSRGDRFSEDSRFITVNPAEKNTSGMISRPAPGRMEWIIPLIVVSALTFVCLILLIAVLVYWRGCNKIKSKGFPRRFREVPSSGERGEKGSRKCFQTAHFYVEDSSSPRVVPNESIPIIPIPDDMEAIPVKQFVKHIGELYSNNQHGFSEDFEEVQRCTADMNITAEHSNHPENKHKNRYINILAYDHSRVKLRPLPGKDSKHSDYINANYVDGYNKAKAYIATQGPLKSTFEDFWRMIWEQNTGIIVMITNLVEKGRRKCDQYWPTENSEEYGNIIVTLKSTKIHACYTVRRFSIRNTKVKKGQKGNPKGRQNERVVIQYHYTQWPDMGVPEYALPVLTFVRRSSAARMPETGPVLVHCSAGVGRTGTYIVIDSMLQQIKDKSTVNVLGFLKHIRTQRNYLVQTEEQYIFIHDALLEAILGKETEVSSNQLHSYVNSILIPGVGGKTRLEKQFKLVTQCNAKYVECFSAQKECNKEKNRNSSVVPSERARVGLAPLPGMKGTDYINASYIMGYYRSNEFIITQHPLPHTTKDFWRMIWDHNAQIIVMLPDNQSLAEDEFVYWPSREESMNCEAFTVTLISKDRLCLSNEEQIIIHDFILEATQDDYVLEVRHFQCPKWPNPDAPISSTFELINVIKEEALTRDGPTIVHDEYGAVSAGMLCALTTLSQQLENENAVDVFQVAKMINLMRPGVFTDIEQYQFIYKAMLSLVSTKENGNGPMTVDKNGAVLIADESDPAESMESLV

Row | Binder | flow cytometry binding value (the table prints no name or unit)
18 | B1 | 78.3
19 | B10 | 29.3
20 | B2 | 87.5
21 | B3 | 92
22 | B4 | 87.5
23 | B11 | 90.9
24 | B5 | 85
25 | B6 | 92.7
26 | B7 | 91.4
27 | B9 | 92.9
28 | B8 | 92.7

target: T3, human CD105-ECD: amino acid residues …; assay: ELISA, absorbance at 405 nm, one condition per Fab and antigen

Row | Binder | binding result
29 | B1 | no binding
30 | B9 | no binding

target: T4, human Nectin-2 extracellular domain …; assay: as above

Row | Binder | binding result
31 | B1 | no binding
32 | B9 | no binding

target: T5, human PTPRG on the cell surface (U937 …); assay: flow cytometry on whole HEL cells, screen of the 28 clones (Ctrl row = 0); PTPRG is named as the antigen on HEL cells only in the later examples

Row | Binder | flow cytometry binding value (the table prints no name or unit)
33 | B1 | 12.6
34 | B10 | 10.7
35 | B2 | 15.8
36 | B3 | 16.9
37 | B4 | 15.8
38 | B11 | 15
39 | B5 | 14.5
40 | B6 | 17.1
41 | B7 | 13.6
42 | B9 | -2.13
43 | B8 | 17.5

— patent US20260265410A1 (UNIVERSITY OF FLORIDA RESEARCH FOUNDATION, published 2026)
